These results are taken from article PMC10397247.

Holding throughout (assay): two-hybrid library CCmax;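 further: natural log of median RNA to DNA barcode read ratio; higher means stronger binding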
For experiment [1], the target named is T1, Core_NIIN-es_KEEK.
T1 chain: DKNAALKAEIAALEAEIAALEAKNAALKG
The following applies: mean of both orientations.

Experiment [2] has as its target T2, Core_NNNI-es_KEEE.
T2 chain: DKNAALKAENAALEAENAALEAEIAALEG
The following applies: mean of both orientations.

For experiment [3], the target named is T3, P2-AA-1HGe-A.
T3 chain: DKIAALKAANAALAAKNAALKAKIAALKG
The following applies: mean of both orientations.

Experiment [4] has as its target T4, P2-AA-1HGe-D.
T4 chain: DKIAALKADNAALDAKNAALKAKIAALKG
The following applies: mean of both orientations.

Experiment [5] deals with T5, P2-AA-1HGe-M.
T5 chain: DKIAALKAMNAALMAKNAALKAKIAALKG
The following applies: mean of both orientations.

In experiment [6] the target is T6, P2-AA-1HGe-Q.
T6 chain: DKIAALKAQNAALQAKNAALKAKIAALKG
The following applies: mean of both orientations.

In experiment [7] the target is T7, P2-AA-1HGe-S.
T7 chain: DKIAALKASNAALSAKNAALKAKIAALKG
The following applies: mean of both orientations.

In experiment [8] the target is T8, P2-AA-1HGe-T.
T8 chain: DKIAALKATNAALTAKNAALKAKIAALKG
The following applies: mean of both orientations.

Experiment [9] concerns the target T9, P2-AA.
T9 chain: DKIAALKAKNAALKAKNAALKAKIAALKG
The following applies: mean of both orientations.

The target of experiment [10] is T10, Core_IINN-es_KKEK.
T10 chain: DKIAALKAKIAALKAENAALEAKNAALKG
The following applies: mean of both orientations.

In experiment [11] the target is T11, 4H2608-AA.
T11 chain: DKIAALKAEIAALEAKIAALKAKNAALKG

Experiment [12] deals with T12, 4H2614-AA.
T12 chain: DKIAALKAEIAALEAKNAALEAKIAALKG
The following applies: mean of both orientations.

The target of experiment [13] is T13, 4H2726-AA.
T13 chain: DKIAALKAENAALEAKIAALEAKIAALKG
The following applies: mean of both orientations.

For experiment [14], the target named is T14, 4H2935-AA.
T14 chain: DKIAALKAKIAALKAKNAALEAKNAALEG
The following applies: mean of both orientations.

Experiment [15] addresses T15, 4H327-AA.
T15 chain: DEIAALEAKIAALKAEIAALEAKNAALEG
The following applies: mean of both orientations.

Experiment [16] addresses T16, 4H3605-AA.
T16 chain: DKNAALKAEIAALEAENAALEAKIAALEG
The following applies: mean of both orientations.

The target of experiment [17] is T17, 4H3625-AA.
T17 chain: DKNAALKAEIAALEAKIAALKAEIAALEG
The following applies: mean of both orientations.

The target of experiment [18] is T18, 4H3664-AA.
T18 chain: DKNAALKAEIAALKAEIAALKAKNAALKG
The following applies: mean of both orientations.

In experiment [19] the target is T19, 4H369-AA.
T19 chain: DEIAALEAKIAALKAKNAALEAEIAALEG

The target in experiment [20] is T20, 4H3922-AA.
T20 chain: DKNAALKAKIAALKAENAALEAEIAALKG
The following applies: mean of both orientations.

Experiment [21] addresses T21, 4H4033-AA.
T21 chain: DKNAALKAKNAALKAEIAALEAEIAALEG
The following applies: mean of both orientations.

Experiment [22] has as its target T22, 4H481-AA.
T22 chain: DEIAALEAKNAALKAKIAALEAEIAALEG
The following applies: mean of both orientations.

For experiment [23], the target named is T23, 4H55-AA.
T23 chain: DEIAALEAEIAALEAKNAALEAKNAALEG
The following applies: mean of both orientations.

In experiment [24] the target is T24, 4H662-AA.
T24 chain: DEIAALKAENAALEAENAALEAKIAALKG
The following applies: mean of both orientations.

Experiment [25] deals with T25, Core_IIIN-es_EKEE.
T25 chain: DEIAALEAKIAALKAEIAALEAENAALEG
The following applies: mean of both orientations.

Experiment [26] addresses T26, Core_NINN-es_KEEK.
T26 chain: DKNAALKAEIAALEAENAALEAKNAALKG
The following applies: mean of both orientations.

Consider DENAALEAKIAALKAKIAALKAENAALEG [Core_NIIN-es_EKKE], for which the interaction score in experiment [1] came out at 2.22.

In the case of DENAALEAKNAALKAKNAALKAKIAALKG [Core_NNNI-es_EKKK], the interaction score in experiment [2] is 1.91.

Regarding DEIAALEAANAALAAENAALEAEIAALEG [P1-AA-1HGe-A], the interaction score in experiment [3] came out at 1.85; in experiment [4] it was 1.82; in experiment [5], 2.12; in experiment [6], 1.88; in experiment [7], 2.24; in experiment [8], 1.54. This molecule registered an interaction score in [9] of 1.57.

DEIAALEAEIAALEAKNAALKAENAALEG [Core_IINN-es_EEKE] showed an interaction score in experiment [10] of 2.21.

With DKIAALKAEIAALEAKIAALKAKNAALKG [4H2608-AA], the interaction score in experiment [11] was -0.193; in experiment [12], -0.644; in [13] it was -0.998; in [14], -0.712; in [15] it was 1.83; in experiment [16], -0.648. Besides, the interaction score in [17] was 1.92; in experiment [18], -0.787; in experiment [19] it was 0.124; in [20], -1.39; in experiment [21], -0.845; in [22], 1.33. Also, the interaction score was -0.255 in experiment [23], -1.55 in experiment [24] and 1.53 in [25].

For the molecule DENAALEAKIAALKAKNAALKAENAALEG [Core_NINN-es_EKKE], the interaction score in experiment [26] was 1.86.
